The text below walks through data of article PMC10545826.

pKd: −log10 of the molar value.

For experiment [1], the target named is human FcγRIIIa (CD16a) V158 (human). Description: SPR; Biacore 8K; His-tagged FcγRIIIa captured (aimed 60 RU) by anti His-tag antibody immobilised on a CM5 chip; antibody samples as analytes (360 to 22.5 nM for the trastuzumab samples); PBS with 0.005% Tween-20; global fit, 1:1 Langmuir model; measured at 21-29 °C, the temperature of Table S1 not given.
Experiment [2] shares this target. In words: SPR; Biacore 8K; His-tagged FcγRIIIa captured (aimed 60 RU) by anti His-tag antibody on a CM5 chip; antibody samples as analytes (trastuzumab samples 360 to 22.5 nM); PBS with 0.005% Tween-20; 1:1 Langmuir global fit; temperature of the printed KD not stated (measured at 21-29 °C). On the technique in general: SPR reads the build-up and loss of mass on a sensor chip optically.

The target is the same in experiment [3]. Description: SPR.
Target sequence in this assay (P08637 17-208 F176V): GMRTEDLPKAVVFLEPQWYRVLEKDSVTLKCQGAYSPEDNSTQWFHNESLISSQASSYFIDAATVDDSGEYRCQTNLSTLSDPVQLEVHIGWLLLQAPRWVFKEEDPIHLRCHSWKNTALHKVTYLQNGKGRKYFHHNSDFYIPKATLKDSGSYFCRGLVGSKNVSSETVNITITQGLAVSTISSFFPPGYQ
For experiment [4] the target is unchanged. In words: SPR; van't Hoff analysis of the temperature dependence of KD (21, 23, 25, 27, 29 °C), parameters at 25 °C; FcγRIIIa captured by anti His-tag antibody, antibody as analyte; PBS with 0.005% Tween-20.

Consider “divalent DOTA-conjugated trastuzumab (antibody)”, for which, in experiment [1], the koff (as a rule, the rate constant with which the complex falls apart) turned out to be 0.0089 s⁻¹ and the kon – broadly, the second-order rate constant of association – was determined as 2.46e+06 M⁻¹ s⁻¹.
With “Rituximab (Rituxan), an anti CD20 human antibody”, in experiment [1], the koff worked out at 0.0331 s⁻¹ and the kon stood at 540000 M⁻¹ s⁻¹. The pKd (usually the negative decadic logarithm of the Kd, by convention in mol/L) in experiment [2] was 7.21.
On to afucosyl rituximab, for which the pKd in experiment [3] is 7.96.
As to “Trastuzumab (anti-HER2 humanized IgG1) (antibody)”, in experiment [4], the dH is -150 kJ/mol. In experiment [1], this substance returned a koff of 0.0281 s⁻¹ and a kon of 550000 M⁻¹ s⁻¹. In experiment [2], this substance gave a pKd of 7.29.
With “monovalent DOTA-conjugated trastuzumab (antibody)”, in experiment [1], the negative logarithm of the Kd (pKd) is 7.91, the koff is 0.0116 s⁻¹ and the on-rate (kon) was found to be 950000 M⁻¹ s⁻¹.
In experiment [1], afucosyl rituximab (antibody) came in with an off-rate (koff) of 0.0108 s⁻¹ and a kon of 990000 M⁻¹ s⁻¹. The fold increase of affinity relative to rituximab in experiment [2] was found to be 22 fold.
In turn, divalent DOTA-conjugated trastuzumab had a pKd in experiment [3] of 8.44.
